Assay [1] addresses Histidine tagged PSMGFR peptide (MUC1* extra cellular domain peptide). Kind of assay: SPR, Biacore 3000, His-tagged PSMGFR peptide on NTA-Ni SAM chip. A general note: In SPR one partner is held on a chip, and binding of the other changes the refractive index at the surface.
For assay [2] the target is unchanged. Nature of the assay: SPR, Biacore 3000, His-tagged PSMGFR peptide on NTA-Ni SAM chip; hexamer signal divided by 3.

Histidine tagged PSMGFR peptide (MUC1* extra cellular domain peptide), sequence (peptide, as listed by the source): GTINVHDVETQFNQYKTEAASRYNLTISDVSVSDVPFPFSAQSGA

As for “NM23-S120G-hexamer (non-refolded soluble-fraction preparation of NM23-H1 S120G) (from UniProt P15531 1-152) (ligand)”, in assay [1], the amount of binding (RUs) is 100 RU. The substance further came in with a fold less bound than NM23-S120G-dimer in assay [2] of 12 fold.

These data come from patent publication US20240294590A1.
